Assay results taken from the supplement of paper PMC10126150.
± gives the standard deviation of the averaged measurements.

System: ATP
Test: switch fluorescence ratio, 500 uM ATP over buffer (Cy3 cluster intensity, sum of 5 cycles each) (fold (ratio)); higher = stronger signal-on switching upon ATP binding; sequences stand for … in TCGTCGGCAGCGTCAGATGTGTATAAGAGACAGTTTTTTTTTTTTTTTTTTTTTTTTT…TC
Conditions: aptamer strand: ATP DNA aptamer (quencher-CACCTGGGGGAGTATTGCGGAGGAAGG + anchor), 100 nM annealed; ATP concentration: 500 uM
Method in brief: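 Imaging in selection buffer was followed by imaging after 15 min with 500 uM ATP at 22 °C, for Cy3-labelled switching-strand clusters annealed to 100 nM quencher-labelled ATP aptamer on a modified Illumina MiSeq flow-cell. Five of these buffer/ATP cycles ran, separated by NaOH stripping and re-annealing. The fluorescence ratio per cluster is summed target-cycle over summed buffer-cycle Cy3 intensity, averaged per switch-domain sequence; clusters outside 100-1000 RFU were removed.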
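Also: ATP exposure 15 min at 22 °C before imaging.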

TAAACTTGAC
switch fluorescence ratio: 1.16 ± 0.1

TAAAGAAACT
switch fluorescence ratio: 1.28 ± 0.35

TAAAGAAAGA
switch fluorescence ratio: 1.1 ± 0.23

TAAAGAACAT
switch fluorescence ratio: 0.997 ± 0.057

TAAAGAAGTG
switch fluorescence ratio: 1.01 ± 0.033

TAAAGAGTGT
switch fluorescence ratio: 1.01 ± 0.0042

TAAAGATAAG
switch fluorescence ratio: 0.98 ± 0.024

TAAAGCAGTA
switch fluorescence ratio: 0.995 ± 0.018

TAAAGCGTTT
switch fluorescence ratio: 1.12 ± 0.27

TAAAGCTGCT
switch fluorescence ratio: 0.9705 ± 0.0071

TAAAGGAAGT
switch fluorescence ratio: 0.983 ± 0.04

TAAAGGAATT
switch fluorescence ratio: 1.05 ± 0.03

TAAAGGCCGT
switch fluorescence ratio: 1.01 ± 0.018

TAAAGGGAAT
switch fluorescence ratio: 1.02 ± 0.056

TAAAGGGATG
switch fluorescence ratio: 0.956 ± 0.017

TAAAGGGGAA
switch fluorescence ratio: 1.01 ± 0.047

TAAAGGGGCA
switch fluorescence ratio: 1 ± 0.028

TAAAGGGGTT
switch fluorescence ratio: 0.986 ± 0.035

TAAAGGTAGT
switch fluorescence ratio: 1 ± 0.032

TAAAGGTCTT
switch fluorescence ratio: 1.01 ± 0.016

TAAAGGTGAA
switch fluorescence ratio: 1.077 ± 0.0066

TAAAGTAGTT
switch fluorescence ratio: 1.01 ± 0.044

TAAAGTGGCT
switch fluorescence ratio: 0.985 ± 0.03

TAAAGTTTAG
switch fluorescence ratio: 1.02 ± 0.015

TAAATAATCG
switch fluorescence ratio: 0.968 ± 0.038

TAAATAATTG
switch fluorescence ratio: 1.008 ± 0.0069

TAAATAATTT
switch fluorescence ratio: 1.01 ± 0.028

TAAATAGTGG
switch fluorescence ratio: 0.987 ± 0.013

TAAATATGTG
switch fluorescence ratio: 0.986 ± 0.021

TAAATGGCCA
switch fluorescence ratio: 0.9798 ± 0.0051

TAAATGGCGT
switch fluorescence ratio: 1.01 ± 0.033

TAAATTAGCC
switch fluorescence ratio: 1.03 ± 0.014

TAAATTATGT
switch fluorescence ratio: 0.9816 ± 0.0076

TAAATTATTG
switch fluorescence ratio: 0.9768 ± 0.0079

TAAATTGATA
switch fluorescence ratio: 0.9924 ± 0.0055

TAAATTGATG
switch fluorescence ratio: 1.036 ± 0.0049

TAAATTTAAG
switch fluorescence ratio: 1 ± 0.027

TAAATTTTAG
switch fluorescence ratio: 1.007 ± 0.0026

TAAATTTTAT
switch fluorescence ratio: 1.012 ± 0.0058

TAAATTTTTC
switch fluorescence ratio: 1.042 ± 0.008

TAACAATATT
switch fluorescence ratio: 0.99495 ± 0.00094

TAACAATTAA
switch fluorescence ratio: 1.03 ± 0.058

TAACAATTGT
switch fluorescence ratio: 1.12 ± 0.18

TAACAGAGTG
switch fluorescence ratio: 1 ± 0.023

TAACAGGAAT
switch fluorescence ratio: 0.966 ± 0.042

TAACAGGCGG
switch fluorescence ratio: 0.991 ± 0.028

TAACAGGTAG
switch fluorescence ratio: 1.05 ± 0.035

TAACAGGTAT
switch fluorescence ratio: 1 ± 0.046

TAACATGGCC
switch fluorescence ratio: 1 ± 0.022

TAACCACCTT
switch fluorescence ratio: 1.12 ± 0.044

TAACCAGTTA
switch fluorescence ratio: 1.04 ± 0.019

TAACCCGGGC
switch fluorescence ratio: 1.03 ± 0.066

TAACCTACCG
switch fluorescence ratio: 1.41 ± 0.037

TAACGAACGC
switch fluorescence ratio: 1.65 ± 0.086

TAACGCCCTA
switch fluorescence ratio: 1.07 ± 0.019

TAACGCCGTG
switch fluorescence ratio: 1.02 ± 0.029

TAACGCTGCC
switch fluorescence ratio: 1.25 ± 0.12

TAACGGCATG
switch fluorescence ratio: 1.031 ± 0.0035

TAACGGGTTG
switch fluorescence ratio: 1.03 ± 0.029

TAACGTATGT
switch fluorescence ratio: 0.9929 ± 0.0046

TAACGTTTAT
switch fluorescence ratio: 1.01 ± 0.032

TAACTAAATT
switch fluorescence ratio: 0.98675 ± 0.00031

TAACTCAAGA
switch fluorescence ratio: 0.9979 ± 0.0066

TAACTGGGTT
switch fluorescence ratio: 1.02 ± 0.036

TAACTTATAA
switch fluorescence ratio: 0.991 ± 0.0024

TAAGAAAGTT
switch fluorescence ratio: 1.41 ± 0.58

TAAGAAGTCT
switch fluorescence ratio: 1.04 ± 0.048

TAAGAATTCG
switch fluorescence ratio: 1.04 ± 0.056

TAAGAATTTG
switch fluorescence ratio: 1.22 ± 0.34

TAAGACATTT
switch fluorescence ratio: 1.03 ± 0.04

TAAGAGAATT
switch fluorescence ratio: 1.02 ± 0.023

TAAGAGAGAA
switch fluorescence ratio: 0.986 ± 0.021

TAAGAGATTG
switch fluorescence ratio: 1.01 ± 0.022

TAAGAGCAGG
switch fluorescence ratio: 1.1 ± 0.091

TAAGAGGCGC
switch fluorescence ratio: 0.958 ± 0.077

TAAGAGGGGA
switch fluorescence ratio: 1.01 ± 0.027

TAAGAGGGTC
switch fluorescence ratio: 0.999 ± 0.041

TAAGAGGGTT
switch fluorescence ratio: 1 ± 0.022

TAAGATAGGA
switch fluorescence ratio: 0.982 ± 0.013

TAAGATAGTA
switch fluorescence ratio: 0.993 ± 0.023

TAAGATCTGG
switch fluorescence ratio: 1.006 ± 0.0021

TAAGATGACG
switch fluorescence ratio: 1.13 ± 0.05

TAAGATGAGA
switch fluorescence ratio: 0.936 ± 0.0097

TAAGATTCGG
switch fluorescence ratio: 0.968 ± 0.015

TAAGATTGTA
switch fluorescence ratio: 0.993 ± 0.032
